Measured values reported in patent US20070031331A1 (Genentech, published 2007).

T1: human CD20 (human, UniProt P11836 1-297)
T1 construct: whole, on cells; also called CD20 antigen; Bp35
T1 sequence (looked up): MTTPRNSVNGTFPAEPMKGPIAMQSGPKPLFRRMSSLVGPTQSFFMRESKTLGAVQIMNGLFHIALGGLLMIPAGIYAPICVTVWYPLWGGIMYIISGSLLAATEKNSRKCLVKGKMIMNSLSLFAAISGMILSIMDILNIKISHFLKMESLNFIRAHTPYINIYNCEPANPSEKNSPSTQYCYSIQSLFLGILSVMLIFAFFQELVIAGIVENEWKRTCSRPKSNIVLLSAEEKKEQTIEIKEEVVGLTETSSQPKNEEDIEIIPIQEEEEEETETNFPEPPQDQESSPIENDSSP

B1: 2H7.v73 (antibody, IgG1)
heavy: not shown
light: DIQMTQSPSSLSASVGDRVTITCRASSSVSYLHWYQQKPGKAPKPLIYAPSNLASGVPSRFSGSGSGTDFTLTISSLQPEDFATYYCQQWSFNPPTFGQGTKVEIKRTVAAPSVFIFPPSDEQLKSGTASVVCLLNNFYPREAKVQWKVDNALQSGNSQESVTEQDSKDSTYSLSSTLTLSKADYEKHKVYACEVTHQGLSSPVTKSFNRGEC
notes: IgG1; changes relative to 2H7.v16; also called 2H7 version 73
B2: 2H7.v75 (antibody, IgG1)
heavy: EVQLVESGGGLVQPGGSLRLSCAASGYTFTSYNMHWVRQAPGKGLEWVGAIYPGNGDTSYNQKFKGRFTISVDKSKNTLYLQMNSLRAEDTAVYYCARVVYYSASYWYFDVWGQGTLVTVSSASTKGPSVFPLAPSSKSTSGGTAALGCLVKDYFPEPVTVSWNSGALTSGVHTFPAVLQSSGLYSLSSVVTVPSSSLGTQTYICNVNHKPSNTKVDKKVEPKSCDKTHTCPPCPAPELLGGPSVFLFPPKPKDTLMISRTPEVTCVVVDVSHEDPEVKFNWYVDGVEVHNAKTKPREEQYNATYRVVSVLTVLHQDWLNGKEYKCKVSNKALPAPIAATISKAKGQPREPQVYTLPPSREEMTKNQVSLTCLVKGFYPSDIAVEWESNGQPENNYKTTPPVLDSDGSFFLYSKLTVDKSRWQQGNVFSCSVMHEALHNHYTQKSLSLSPGK
light: B1 light
notes: IgG1; changes relative to 2H7.v16; also called 2H7 version 75
B3: 2H7.v166 (antibody, human IgG1, kappa, V domains shown)
VH: EVQLVESGGGLVQPGGSLRLSCAASGYTFTSYNMHWVRQAPGKGLEWVGAIYPGNGDTSYNQKFKGRFTISVDKSKNTLYLQMNSLRAEDTAVYYCARVVYYGGDWYFDVWGQGTLVTVSS
VL: DIQMTQSPSSLSASVGDRVTITCRASSSVSYMHWYQQKPGKAPKPLIYAPSNLASGVPSRFSGSGSGTDFTLTISSLQPEDFATYYCQQWSFNPPTFGQGTKVEIKR
notes: IgG1; changes relative to 2H7.v16; Y100b is deleted (written as a change to nothing); also called 2H7 version 166

What was measured:
human CD20 [1] = molecular target: T1, human CD20; assay: Scatchard analysis, cold antibody against 125I-2H7.v16 on WIL2-S cells, n=4
Method: All dilutions were performed in binding assay buffer (DMEM media containing 1% bovine serum albumin, 25 mM HEPES pH 7.2, and 0.01% sodium azide). […] WIL2-S cells (60,000 cells in 0.025 mL) were then added. The plate was sealed and incubated at room temperature for 24 hours, then centrifuged for 15 min at 3,500 RPM. The supernatant was then aspirated and the cell pellet was washed and centrifuged. The supernatant was again aspirated, and the pellets were dissolved in 1N NaOH and transferred to tubes for gamma counting.

human CD20 [2] = molecular target: T1, human CD20; assay: cell-based ELISA on WIL2-S cells; conc. 2H7.v16 / conc. variant
Method: To measure relative binding affinities to the CD20 antigen, a cell-based ELISA assay was developed. […] The cells were washed with PBS containing 1% fetal bovine serum (FBS) (assay buffer) and seeded at 250-300,000 cell/well in 96-well round bottom plates (Nunc, Roskilde, Denmark). […] The plates were buried in ice and incubated for 45 min. To remove the unbound antibody, 0.1 mL assay buffer was added to the wells. Plates were centrifuged and supernatants were removed. Cells were washed two more times with 0.2 mL assay buffer. Antibody bound to the plates was detected by adding peroxidase-conjugated goat anti-human Fc antibody (Jackson ImmunoResearch, West Grove, Pa.) to the plates. After a 45-min incubation, cells were washed as described before. TMB substrate (3,3′,5,5′-tetramethyl benzidine; Kirkegaard & Perry Laboratories, Gaithersburg, Md.) was added to the plates. The reaction was stopped by adding 1 M phosphoric acid. Titration curves were fit with a four-parameter nonlinear regression curve-fitting program ([…] ™, Synergy software, Reading, Pa.). The absorbance at the midpoint of the titration curve (mid-OD) and its corresponding concentration of the standard were determined. Then the concentration of each variant at this mid-OD was determined, and the concentration of the standard was divided by that of each variant.

Row | Binder | Kd (human CD20 [1]) [nM] | Relative binding (human CD20 [2]) [ratio]
1 | B1 | 1.22 | –
2 | B2 | 1.09 | –
3 | B3 | – | 0.99
